“Also recorded” adds a separate entry of the source.

The conditions of series [1]: Siu et al., AACR abstract CT116, 2017; cited from earlier work.
The target of a further series is IDO1 (Homo sapiens, UniProt P14902). Conditions: cited from earlier work.
The target in a further series is T1, IDO2 (Homo sapiens, UniProt Q6ZQW0).
T1 sequence (Q6ZQW0 1-407): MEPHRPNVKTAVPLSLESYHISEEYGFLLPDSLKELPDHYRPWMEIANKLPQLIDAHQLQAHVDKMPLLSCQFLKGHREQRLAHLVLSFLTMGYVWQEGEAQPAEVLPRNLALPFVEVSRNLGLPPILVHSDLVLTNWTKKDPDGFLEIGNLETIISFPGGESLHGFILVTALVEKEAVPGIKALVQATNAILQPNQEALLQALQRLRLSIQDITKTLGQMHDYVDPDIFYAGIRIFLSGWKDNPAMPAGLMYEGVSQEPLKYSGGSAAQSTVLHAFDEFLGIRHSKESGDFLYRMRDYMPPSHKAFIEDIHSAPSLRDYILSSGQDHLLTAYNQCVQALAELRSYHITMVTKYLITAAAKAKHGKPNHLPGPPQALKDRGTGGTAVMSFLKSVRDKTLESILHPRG
The note with it: Pendergast et al., Cancer Research, 2017; cited from earlier work.

Another series deals with advanced melanoma. Conditions: combined with pembrolizumab; Phase II study; cited from earlier work.
The subject of series [2] is 4T1 tumors. The series can be described thus: Immunohistochemistry of 4T1 tumors for β-catenin, CD8 and IDO1. It is filed as in vivo, Balb/C mice. The note with it: BCAT1 3 mg/kg days 6, 7, 12, 13 post-implant, tumors 48 hours after last dose, vs placebo. Here is the method: (§1) 6-8-week-old immunocompetent mice (C57BL/6 or Balb/C) were injected subcutaneously with 1.5×10^6B16F10 or 1.5×10^6 4T1 tumor cells under the right shoulder. Tumor volume was measured every 2-3 days a week to monitor tumor growth. Dosing was initiated when the tumors reached about 150-200 mm^3. […] BCAT1 formulated LNP or Placebo (scrambled CTNNB1 dsRNAi) formulated LNP was given intravenously via lateral tail vein at a total volume of 10 ml/kg. Immunotherapy treatments (anti-PD-1 antibody) were given intraperitoneally at a volume of 10 ml/kg.
(§2) Mouse cell lines B16F10 and 4T1 cells were obtained from ATCC (Manassas, Va.) and grown in RPMI/DMEM medium supplemented with 10% FBS. B16F10 cells is a murine melanoma cell line with no Wnt activation or IDO1 activation. 4T1 is a murine breast cell line with Wnt activation and constitutive activation of IDO1.
Balb/C mice were implanted with 4T1 tumors. At six days post 4T1 tumor cell implantation, with the average tumor size of 150-200 mm^3, mice were sorted into two groups and were treated with either placebo or BCAT1 at 3 mg/kg on days 6 and 7 and days 12 and 13 post-implant, as shown in FIG. 1A. 48 hours after the last dose, tumors were collected and assayed by immunohistochemistry for β-catenin, CD8 and IDO1 protein levels.
(§3) Tumors were collected 48 hours after the last dose and were subjected to immunohistochemistry to look at β-catenin, CD8 and IDO1 levels. […] FIG. 3B. FIG. 3B. […] Tumor growth was monitored by measuring the tumor sizes over the course of the treatment period. […] FIG. 3C.

Series [3] concerns MMTV-Wnt tumors. The series can be described thus: Immunohistochemistry of MMTV-Wnt tumors for β-catenin, CD8 and IDO1. The series is classed as in vivo, mice. Conditions: BCAT1 5 mg/kg per dose study days 1, 2, 3; tumors 24 hours after last dose; 5 mg/kg. Here is the method: (§4) In the MMTV-Wnt mouse model, mammary gland specific overexpression of Wnt1 with MMTV-LTR leads to spontaneous breast tumors with activated Wnt/β-catenin signaling. MMTV-Wnt mammary tumors spontaneously grow in mice in 3-6 months from the time of birth with Wnt pathway activation.
To see the effect of β-catenin inhibition on T cell infiltration and IDO1 levels in spontaneous tumors, the MMTV-Wnt1 model was used. The tumors were collected 24 hours after the last dose and subjected to immunohistochemistry to determine β-catenin, CD8, and IDO1 levels.
Tumors were collected 24 hours after the last dose and subjected to immunohistochemistry to determine β-catenin, CD8 and IDO1 levels.

Series [4] relates to 4T1 tumors. The series can be described thus: Flow cytometry of surface markers in 4T1 tumors. The series is classed as in vivo, Balb/C mice. Conditions: BCAT1 3 mg/kg days 6, 7, 12, 13, tumors 24 hours after last dose, vs PBS. As to the method: In another similar study, mice bearing 4T1 tumors were treated with PBS or BCAT1 at 3 mg/kg on days 6 and 7 and days 12 and 13 post-implant, as shown in FIG. 2A. Tumors were collected 24 hours after the last dose and subjected to flow cytometry to measure surface markers on single-cell suspensions prepared from the extracted tumors. […] FIG. 2B. […] FIG. 2B. No effect was observed on the immunosuppressive MDSC cells. FIG. 2B.
(A flow cytometer gives signals particle by particle.)

Series [5] concerns B16F10 tumors. Kind of series: B16F10 tumor growth study. The series is classed as in vivo, C57BL/6 mice. The note with it: BCAT1 single agent 3 mg/kg days 5, 6, 11, 12. As to the method:
as §1, §2
In a similar study, B16F10 tumor cells were implanted in C57BL/6 mice and at day 5 post-implant, the mice were randomized into two groups and treated with placebo or BCAT1. This dosing cycle was then repeated on days 11 and 12. Tumor growth was monitored by measuring the tumor sizes over the course of the treatment period. […] FIG. 6C.
Tumor growth was monitored by measuring the tumor sizes over the course of the treatment period. […] FIG. 8C. […]

Series [6] relates to 4T1 tumors. The series can be described thus: 4T1 tumor growth study. It is filed as in vivo, Balb/C mice. Here is the method:
as §1, §2
In another study, 4T1 tumor cells were implanted in Balb/C mice and 4 days post-implant, the mice were randomized into two groups and treated with placebo or BCAT1. This dosing cycle was then repeated on days 9 and 10. Tumor growth was monitored by measuring the tumor sizes over the course of the treatment period. […] FIG. 1C.
as §3

Another series concerns multiple tumor types. The series can be described thus: Delivery of LNP formulated BCAT1 to tumors in models. The series is classed as in vivo. From the text: The BCAT1 construct was formulated in EnCore lipid nanoparticles (LNP).
Series [7] concerns B16F10 tumors. The series can be described thus: Flow cytometry of immune cell infiltrate in B16F10 tumors. Conditions: BCAT1 3 mg/kg days 6, 7, 12, 13, tumors 24 hours after last dose. It is filed as in vivo, C57BL/6 mice. Here is the method:
A similar study was run to monitor the levels of immune cell infiltrate after two rounds of BCAT1 treatment. B16F10 tumors were treated with PBS, placebo, or BCAT1 at 3 mg/kg on days 6 and 7 post-implant and again on days 12 and 13 post-implant, as shown in FIG. 7A. Tumors were collected 24 hours after the last dose and were subjected to flow cytometry. […] The MDSC cell population was not altered. FIG. 7B.

Series [8] has as its system MMTV-Wnt tumors. The series can be described thus: MMTV-Wnt tumor growth study. The series is classed as in vivo, mice. As to the method:
as §4
In another study, MMTV-Wnt tumor-bearing mice were treated with BCAT1 at 3 mg/kg on study days 1, 2, 6, and 7 and tumor growth was monitored.

In series [9] the test system is B16F10 tumors. Kind of series: Immunohistochemistry of B16F10 tumors for β-catenin, CD8 and IDO1. The series is classed as in vivo, C57BL/6 mice. Conditions: BCAT1 3 mg/kg days 6, 7, 12, 13 post-implant, tumors 48 hours after last dose, vs placebo. As to the method: as §1, §2
C57BL/6 mice were implanted with B16F10 tumors. At six days post B16F10 tumor cell implantation, with the average tumor size of 200 mm^3, mice were sorted into two groups and were treated with either placebo or BCAT1 at 3 mg/kg on days 6 and 7 post-implant and again on days 12 and 13 post-implant, as shown in FIG. 6A. 48 hours after the last dose, tumors were collected and assayed by immunohistochemistry for β-catenin, CD8 and IDO1 protein levels. […] FIG. 6B.
Tumors were collected 48 hours after the last dose and were subjected to immunohistochemistry to analyze β-catenin, CD8 and IDO1 levels. […] FIG. 8B.

Chain of IDO1 (P14902 whole entry, species assumed): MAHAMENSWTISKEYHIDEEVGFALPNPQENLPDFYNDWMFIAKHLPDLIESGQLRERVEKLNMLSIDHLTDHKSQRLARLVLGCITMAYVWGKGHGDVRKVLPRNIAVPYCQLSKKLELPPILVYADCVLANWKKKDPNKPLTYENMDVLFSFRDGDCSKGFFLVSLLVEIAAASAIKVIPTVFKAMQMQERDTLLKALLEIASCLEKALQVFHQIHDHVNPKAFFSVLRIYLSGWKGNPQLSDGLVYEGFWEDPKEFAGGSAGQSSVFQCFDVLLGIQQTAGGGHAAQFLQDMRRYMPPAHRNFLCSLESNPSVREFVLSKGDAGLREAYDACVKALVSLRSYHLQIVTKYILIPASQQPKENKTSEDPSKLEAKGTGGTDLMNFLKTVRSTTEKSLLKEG

Consider `C[C@@H](C(=O)Nc1ccc(Cl)cc1)C1CCC(c2ccnc3ccc(F)cc23)CC1` (stereo partly drawn) [BMS-986205], for which the “tolerability in patients with advanced cancers” value in series [1] is recorded as “safely tolerated”.
Take `O=C1CC(c2c[nH]c3ccc(F)cc23)C(=O)N1` (stereo not drawn) [PF-06840003]: the “enzymes targeted / inhibited (IDO1, TDO)” value on IDO1 is “selectively target IDO1”.
For the molecule `Cn1cc(C[C@@H](N)C(=O)O)c2ccccc21` [indoximod, 1-methyl-D-tryptophan], the “inhibition of IDO2” value on IDO2 was “indirectly inhibit IDO2”. For the same molecule, the “efficacy in patients with advanced melanoma” value in the series on advanced melanoma is given as “shown efficacy”.

B1: BCAT1: nucleic acid inhibitor molecule targeting the β-catenin gene; sense strand SEQ ID NO:1, antisense strand SEQ ID NO:2; formulated in EnCore lipid nanoparticles (nucleic acid)
sense: AGAAUACAAAUGAUGUAGAAACAGCC
antisense: UAGCUAUCGTGGCUGUUUCUACAUCAUUUGUAUUCUGC
modifications: formulated in lipid nanoparticles, chemistry not given here
Regarding B1, in the series with 4T1 tumors [2], the “CD8 protein levels / CD8 T-cell infiltration (immunohistochemistry)” value is recorded as “increases”, the “IDO1 protein levels (immunohistochemistry)” value is on record as “did not reduce the IDO1 levels significantly; also recorded: does not significantly reduce” and the “β-catenin protein levels (immunohistochemistry)” value is given as “decreases”. In the series with MMTV-Wnt tumors [3], the “CD8 levels / CD8 T-cell infiltration (immunohistochemistry)” value was “increases”, the “IDO1 levels (immunohistochemistry)” value is on record as “unchanged; also recorded: does not significantly reduce” and the “β-catenin levels (immunohistochemistry)” value was “decreases”. Besides, in the series on 4T1 tumors [4], the “LAG-3 checkpoint, flow cytometry” value is listed as “significant increases”; the “MDSC cells, flow cytometry” value was “No effect; also recorded: does not significantly alter”; the “PD-1 checkpoint, flow cytometry” value is recorded as “significant increases”; the “Regulatory T cells (Tregs), flow cytometry” value is given as “significantly increased; also recorded: increases”. In addition, in the series on 4T1 tumors [4], the “Tim-3 checkpoint, flow cytometry” value is reported as “significant increases” and the “cytotoxic T-cells (CD8+), flow cytometry” value is on record as “significant increases”. Also, the “tumor growth as compared to placebo” value with B16F10 tumors [5] is “did not significantly inhibit tumor growth; also recorded: does not significantly inhibit tumor growth”. For the same molecule, the tumor growth inhibition result in the series with 4T1 tumors [6] (BCAT1 alone 3 mg/kg days 4, 5, 9, 10, vs placebo) is “about 40%”. Further, the “anti-tumor efficacy (tumor volume)” value in the series with 4T1 tumors [6] (IDOi orally 100 mg/kg per dose twice daily days 4 and 6, BCAT1 iv 3 mg/kg days 5 and 6, anti-PD-1 antibody ip 5 mg/kg days 7 and 8, single, double or triple agents) is given as “modest anti-tumor efficacy”. In the series with 4T1 tumors [6] (two cycles of BCAT1 treatment), the “tumor growth as compared to placebo” value was “inhibits tumor growth”. In the series on multiple tumor types (HCT116, DLD1, HL60), the “Delivery of BCAT1 to Various Tumor Types” value was “Negative: HCT116, DLD1, HL60”. For the same molecule, in the series with multiple tumor types (LNP formulated BCAT1, tumor types of Table I (subcutaneous, orthotopic, disseminated, metastatic xenograft, PDX, GEM)), the “Delivery of BCAT1 to Various Tumor Types” value was “effectively deliver the nucleic acid payload to multiple tumor types”. For the same molecule, in the series on B16F10 tumors [7], the “CD8 T cells, flow cytometry” value is given as “elevated; also recorded: increases”; the “LAG-3 checkpoint, flow cytometry” value was “elevated; also recorded: increases”; the “MDSC cell population, flow cytometry” value was “not altered; also recorded: does not significantly alter”; the “PD-1 checkpoint, flow cytometry” value was “elevated; also recorded: increases”. Also, the “Tim-3 checkpoint, flow cytometry” value with B16F10 tumors [7] is “elevated; also recorded: increases”. The “level of Tregs, flow cytometry” value with B16F10 tumors [7] (as compared to PBS) is listed as “did not significantly change; also recorded: does not significantly alter”. Besides, the tumor growth inhibition entry in the series with MMTV-Wnt tumors [8] (BCAT1 alone 3 mg/kg study days 1, 2, 6, 7) is listed as “about 50%”. In addition, in the series with MMTV-Wnt tumors [8] (two cycles of BCAT1 treatment), the “tumor growth as compared to placebo” value is reported as “inhibits tumor growth”. Moreover, in the series with B16F10 tumors [9], the “CD8 protein levels / CD8 T-cell infiltration (immunohistochemistry)” value is “increases”, the “IDO1 protein levels (immunohistochemistry)” value is “decreased; also recorded: reduces” and the “β-catenin protein levels (immunohistochemistry)” value is reported as “decreases”.

(Values after US11813280B2, “Reducing beta-catenin and IDO expression to potentiate immunotherapy” (Dicerna Pharmaceuticals, Inc., priority 2018, dated 2023).)
